Experimental data reported in patent US20040181828A1 (E I DUPONT DE NEMOURS, published 2004).

Biological target: T1, ADGal4/rDr1 fusion protein (Gal4 activation domain fused to rice Dr1, encoded by pADGal4::rDr1) (rice)
T1 construct: Expressed in yeast YRG-2 for the two-hybrid assay; Coding region of rice Dr1 (EcoR I/Sma I fragment) fused in frame
T1 chain: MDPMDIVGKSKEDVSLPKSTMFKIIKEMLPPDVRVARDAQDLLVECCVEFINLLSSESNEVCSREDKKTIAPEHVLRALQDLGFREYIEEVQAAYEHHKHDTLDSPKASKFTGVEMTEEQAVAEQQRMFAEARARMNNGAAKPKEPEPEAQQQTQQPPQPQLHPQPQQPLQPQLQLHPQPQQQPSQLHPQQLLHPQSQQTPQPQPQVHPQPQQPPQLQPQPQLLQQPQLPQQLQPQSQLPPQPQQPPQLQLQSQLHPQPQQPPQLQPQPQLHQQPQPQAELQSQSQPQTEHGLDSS
Assay: yeast two-hybrid (Gal4 system, YRG-2), growth on medium lacking Trp, Leu and His
Description: USA 88: 9578-9582). The rice Dr1 and DRAP1 cDNAs described in Example 5 were fused with pAD-Gal4 and pBD-Gal4 to generate pADGal4::rDr1 and pBDGal4::rDRAP1 constructs respectively. The EcoR I and Sma I fragment containing coding region of rice Dr1 was cloned into pAD-Gal4 EcoR I and Sma I sites to generate pADGal4::rDr1. The Mfe I and Pst I fragment containing coding region of rice DRAP1 was cloned into pBD-Gal4 EcoR I and Pst I sites to generate pBDGal4::rDRAP1. The pADGal4::rDr1 and pBDGal4::rDRAP1 were transformed independently and co-transformed into Stratagene's YRG-2 yeast strain (Stratagene, San Diego, Calif.). Competent YRG-2 cells were prepared according to the method of Eible (1992) Biotechniques 13:18-20) and transformed with one microgram of DNA added to a […] aliquot of competent yeast cells. A mixture containing 240 PI 50% PEG (MW 3350), 36 μl 1 M lithium acetate, and 50 μg of salmon sperm DNA was added to the yeast-DNA mixture. After mixing the mixture was incubated at 30° C. for 30 minutes and heat shocked at 42° C. for 20 minutes. Maximum of 200 μl of transformation mixture was plated on selective plates. For initial plating transformants containing the pADGal4::rDr1 construct (trp+), were plated on selection medium lacking tryptophan. […]

B1: Truncated rice DRAP1 (N-terminal deletion of 63 amino acids) fused to Gal4 DNA binding domain, encoded by pBDGal4::rDRAP1NN64 (other, not shown: large carriers)
chain: SFHLKQCVRRYSSFDFLTEVVNKVPDLGGADSCGDDRALPRRRKALPNGSDPENEESRSSKMAVRSANISPRGRGRGRGRGRGRPPTKRKEVGYVQFEDESSMFADQGEALPGEETVPETIHGTESVPPSTHPPAEAPSAAEIPAPNPKVEEAKNDDHQPDWPMPDAIGNIGVGPSGFGHLTVQVDEDEDYDNED
notes: Lacks the N-terminal 63 amino acids of rice DRAP1
- binding result: no binding
